Reference: the supplement of paper PMC10567573

B1: C9orf9 (parent)
chain: TKHKCRQLTKASLKPRGCSKPPWR

Variants of: B1
Experiment: protein stability index of a GFP-peptide fusion (GPS, HEK-293T) (PSI 1-6); higher = more stable
Conditions: c terminus: a fixed tail appended
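Note: lentivirally expressed fusions sorted by FACS into six bins by GFP to DsRed ratio, PSI derived from sequencing read proportions per bin multiplied by bin number.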

Protein stability index, by site and new letter:
P21: G 2.81; D 2.93; F 2.79; H 3.41; T 2.56; L 3.59; E 2.79; C 2.36; I 3.18; N 2.9; S 2.4; Q 3.48; M 2.64; K 2.76; Y 2.13; V 3.09; W 2.28
C18: R 3.03; W 2.06; L 3.6; K 3.42; Q 3.32; D 3.06; H 3.02; I 2.2; G 3.76; Y 2.18; M 2.58; F 2.69; P 3.32; E 3.01; V 2.1
T1: E 2.52; K 2.62; C 2.45; G 3.17; P 3.06; R 3.56; A 3.08; D 3.22; F 3.6; Q 2.46; N 3.18; I 2.59; L 2.44; M 2.64; S 2.96; Y 2.09
R6: D 3.03; I 1.86; E 3.17; T 2.4; W 2.46; G 3.22; C 2.6; Y 3.72; V 2.84; P 1.91
W23: G 2.73; F 2.67; I 3.56; D 4.3; T 3.93; L 3.72; V 3.28; E 4.29; A 3.89; K 4.63; S 2.84; H 4.46; P 4.18; C 2.89; R 3.96
K4: A 2.94; C 1.91; G 2.83; F 1.82; H 2.66; Q 2.88; L 1.72; P 2.21; R 2.45; Y 1.95; N 2.78; T 2.67; S 2.9; V 2.25
S12: Y 2.06; H 2.35; F 2.28; T 2.6; R 3.37; K 3.81; E 2.57; Q 3.25; P 3.28; W 2.09; D 2.82; N 3.19; M 1.54; A 2.98; L 2.19; C 2.41
P22: Y 2.62; I 2.02; T 3.03; F 1.73; E 2.98; A 2.97; S 3.14; N 2.32; R 2.51; Q 2.99; D 2.38; K 3.03
S19: M 2.94; E 2.02; C 2.36; L 3.11; D 2.77; A 1.5; K 2.37; G 2.21; N 2.44; R 3.63; W 2.14; Y 1.99; P 1.92; F 2.33; Q 2.44
A11: C 2.23; E 2.27; L 2.59; Q 2.16; V 2.57; P 3.89; N 2.95; W 2.27; S 2.78; I 2.29; K 2.85; T 2.92; D 2.81; H 3.04
K20: M 1.76; Q 2.45; R 3.14; C 2.23; A 2.41; N 2.95; W 1.94; Y 3.56; T 2.21; G 2.64; E 2.41
Q7: Y 2.72; M 2.14; E 2.73; N 3.14; K 3.27; R 2.56; F 1.63; V 1.97; G 2.75; D 4.68; S 3.27; T 2.06; I 2.08; C 2.17; L 1.29
R16: G 2.42; L 2.56; T 2.67; W 1.69; M 2.45; N 3.08; K 2; A 2.72; I 2.56; Y 2.28; S 2.89; H 2.6; P 3.31; E 2.33
H3: R 3.11; K 3.09; T 2.83; F 2.27; P 3.03; C 1.44; Y 3.08; D 3.12; E 2.77
K14: N 3.41; T 3.17; R 2.52; W 2.56; P 2.98; Y 1.54; A 2.24; C 2.63; D 2.2; F 2.78; E 3; V 2.79; S 2.86; Q 2.68; L 2.75
P15: M 2.32; W 2.22; G 3.41; D 3.17; N 2.86; T 2.67; C 2.5; H 4.16; E 2.59; S 3; I 2.66; L 2.01
C5: N 2.15; F 2.4; H 2.44; V 2.88; G 2.21; S 2.87; M 1.84; E 3.12; L 2.2; Q 3.33; K 3.65; T 2.24; R 3.76; Y 2.88
T9: N 3.87; Y 3.38; H 2.47; G 2.56; A 2.2; W 2.25; P 3.18; L 2.17; Q 3.14; V 2.92; I 2.22; M 2.48; S 2.27
L13: A 3.23; N 2.92; M 2.8; E 2.91; D 3.64; S 3.5; I 3.22; Q 3.57; P 3.42; G 4.47; R 3.55; F 2.63; C 3.26; H 2.88; W 3.03; V 2.33
L8: P 4.04; F 3.24; E 3.62; I 2.37; W 2.43; C 2.89; T 3.22; A 3.21; N 3.04; R 3.54; M 2.62; G 2.58; Y 2.35; K 3.02; H 2.98; D 3.07; S 3.12
K2: Y 2.1; S 4.18; W 2.57; P 4.64; G 3.88; N 2.78; I 1.64; D 3.81; A 1.36; M 2.16
K10: N 2.8; T 3.42; M 2.38; F 2.58; L 2.21; Y 2.53; H 2.11; Q 2.77; S 3.07; I 2.73; W 2.46; E 1.74; D 1.94
R24: L 1.72; P 2.53; K 3.63; C 1.99; Y 2.59; Q 2.2; A 2.95; M 2.57; H 2.82; N 2.79; V 2.14; G 2.12; I 1.43; S 2.18; F 2.14; E 3.22
G17: M 2.09; A 2.83; K 3.32; C 1.83; Q 3.6; S 2.82; T 2.78; W 1.92; P 2.08; H 2.76; R 3.03; L 2.14; Y 2.52; N 2.43; I 2.86
